Experimental data reported in patent US12539289B2, “Phorbol ester compositions and methods of use for treating or reducing the duration of cytopenia” (BIOSUCCESS BIOTECH CO., LTD., priority 2014, dated 2026).

How the values were obtained:
[1] = tested on: Drug Induced Cytopenia; test: Drug induced cytopenia treated by TPA: blood cell counts after DNR + Ara-C; type: in vivo, mice; conditions: n = 10
Description: Ninety (90) adult mice were randomly assigned to 9 groups (10 mice per group). No drug was administered in Control group. Model group was given DNR (6 mg/kg)+Ara-C (150 mg/kg) on Day 0. The rest of the 7 groups were given DNR (6 mg/kg)+Ara-C (150 mg/kg) on Day 0, and each group on Day 7, Day 8, and Day 9 was administered with one of the following drugs: G-CSF (10 μg/kg), EPO (500 IU/kg), TPA (12.5 μg/kg), TPA (25 μg/kg), TPA (50 μg/kg), TPA (12.5 μg/kg)+GCSF (10 μg/kg), or TPA (12.5 μg/kg)+EPO (500 IU/kg).

[2] = tested on: bone marrow stromal cells (BMSCs) from patients of AML in the bone marrow suppression phase; test: BMSC proliferation or inhibition, CCK8 method, AML patients; type: cell-based, human
Description: (§1) To explore the effect of TPA alone or combined rhG-CSF on bone marrow hematopoietic cells proliferation and colony formation ability which from patients of acute myeloid leukemia (AML) in the period of bone marrow suppression in vitro and to observe the effect of TPA on bone marrow stromal cells(BMSCs) proliferation or inhibition from patients of AML in the period of myelosuppression and the healthy persons.
(§2) • 1) Human bone marrow cells from the same AML patient after chemotherapy were cultured by methyl cellulose semi-solid culture medium. Groups: Blank, TPA (10 ng/ml), G-CSF (50 ng/ml), TPA (10 ng/ml)+GCSF (50 ng/ml). The experiments were repeated for 4 times. • 2) The stroma cells of bone marrow from the healthy human and the AML patient after chemotherapy were cultured by methyl cellulose semi-solid culture medium. Different TPA concentrations were added. Groups: Blank, TPA (0.1 ng/ml), TPA (1.0 ng/ml), TPA (5 ng/ml), TPA (10 ng/ml), TPA (20 ng/ml), TPA (30 ng/ml). • 3) Cultivation of BMSCs from healthy persons and patients of AML in the bone marrow suppression phase in vitro, added to TPA of different concentrations, 0.1 ng/ml, 1.0 ng/ml, 5 ng/ml, 10 ng/ml, 20 ng/ml, 30 ng/ml, and set up a control to detect cell proliferation or inhibition with CCK8 method. Results and Conclusion: • 1. […]

[3] = tested on: Human bone marrow cells from the same AML patient after chemotherapy; test: Colony formation of bone marrow hematopoietic cells in methyl cellulose semi-solid culture medium; type: cell-based
Description: as §1
• 1) Human bone marrow cells from the same AML patient after chemotherapy were cultured by methyl cellulose semi-solid culture medium. Groups: Blank, TPA (10 ng/ml), G-CSF (50 ng/ml), TPA (10 ng/ml)+GCSF (50 ng/ml). The experiments were repeated for 4 times. • 2) The stroma cells of bone marrow from the healthy human and the AML patient after chemotherapy were cultured by methyl cellulose semi-solid culture medium. Different TPA concentrations were added. Groups: Blank, TPA (0.1 ng/ml), TPA (1.0 ng/ml), TPA (5 ng/ml), TPA (10 ng/ml), TPA (20 ng/ml), TPA (30 ng/ml). • 3) Cultivation of BMSCs from healthy persons and patients of AML in the bone marrow suppression phase in vitro, added to TPA of different concentrations, 0.1 ng/ml, 1.0 ng/ml, 5 ng/ml, 10 ng/ml, 20 ng/ml, 30 ng/ml, and set up a control to detect cell proliferation or inhibition with CCK8 method. Results and Conclusion: • 1. Compared the clones of four groups in incomplete medium, in the control group a small cell clusters can be seen for 24-72 hours, but the cells were dead as time prolong. Cultivated 14 days, control group have no clones formation, CFU-GM are dominated for G-CSF group, TPA alone and combination with G-CSF group have myeloid colony formation, while BFU-E and CFU-GEMM. […] Compared the clones of different concentration of TPA stimulation in incomplete medium, the total clones of 5 ng/ml, 10 ng/ml, 20 ng/ml group are higher than other groups, including 10 ng/ml in the highest, there are statistical significance (both P<0.05). While decreasing or increasing TPA concentration can not improve the colony number. The better concentration of TPA to stimulate the colony formation is 5˜20 ng/ml. […] Compared the clones of different concentration of TPA and G-CSF (50 ng/ml) stimulation in incomplete medium. Combination with G-CSF the better concentration of TPA is 1˜10 ng/ml (both P<0.05). Combination with G-CSF the best concentration of TPA is 5 ng/ml and 1 ng/ml. for CFU-GM and CFU-GEMM. The main clone types are myeloid colones, CFU-GM, also have CFU-GEMM and fewer BFU-E. • 4. […] While TPA group and G-CSF group the number of clones of TPA group and G-CSF group have no statistical significance (P=0.577). • 5. […] Meanwhile, TPA promote bone marroe stromal cells from the AML patients proliferation of concentration 5˜30 ng/ml (cell number 2×10^5/ml). 5 ng/ml of TPA is the best concentration of promoting proliferation, and G-CSF had no effect on the growth of BMSCs from healthy persons or AML patients.

[4] = tested on: bone marrow stromal cells (BMSCs) from healthy persons; test: BMSC proliferation or inhibition, CCK8 method, healthy persons; type: cell-based, human; conditions: healthy persons
Description: as §1, §2

[5] = tested on: neutropenia; test: Duration of neutropenia after high dose chemotherapy; type: in vivo; conditions: stated 'for example'
From the text: For example, the duration of neutropenia after high dose chemotherapy and treatment with GCSF is, for example, about 24±3 days. The combination of TPA and GCSF reduces the duration of neutropenia to about 15±3 days, or about a 25% to 50% reduction in the duration of neutropenia.

[6] = tested on: neutropenia and thrombocytopenia; test: AML (M2) patient case after DA regimen chemotherapy; type: in vivo, human
Description: Patient, diagnosed with AML (M2). Patient's bone marrow myeloblast plus promyelocyte count was about 60%. After they received one standard course of DA regimen (7 Ara C+3 Daunorubicin), their peripheral WBC count dropped to 0.8×10^9/L. They were then administered 150 μg G-CSF each day. After chemotherapy, it took 12 days (duration of neutropenia and thrombocytopenia) to bring both their platelet count and WBC count, including the neutrophil count, back to normal. Their bone marrow myeloblast plus promyelocyte count was about 40%, still way above the normal value (0˜5%). Then, they received their second standard course of DA regimen. After the second course of DA regimen, their peripheral WBC count and platelet count dropped to 0.6×10^9/L and 80×10^9/L respectively. They were then administered TPA plus G-CSF (150 μg TPA followed with 150 μg G-CSF) each day of day 1 and day 2. On day 4 and day 5, they were administered with only 150 μg TPA each day. The WBC counts and neutrophil percentage* in parenthesis were 1.8×10^9/L (39%) on day 3, 6.5×10^9/L (72%) on day 7, and 5.7×10^9/L (77%) on day 14. The estimated duration of neutropenia after chemotherapy was shortened to about 5 days. The platelet counts were 330×10^9/L on day 3, 715×10^9/L on day 7, and 568×10^9/L on day 14. The estimated duration of thrombocytopenia after chemotherapy was shortened to less than 3 days. […]

[7] = 8 days after DNR + Ara-c, 1 day after 1st dose, G-CSF 10, EPO 500, TPA 12.5, TPA + GCSF 12.5 + 10, TPA + EPO 12.5 + 500 (μg·kg^−1)
[8] = 9 days after DNR + Ara-c, 1 day after 2nd dose, G-CSF 10, EPO 500, TPA 12.5, TPA + GCSF 12.5 + 10, TPA + EPO 12.5 + 500 (μg·kg^−1)
[9] = 10 days after DNR + Ara-c, 1 day after 3rd dose, G-CSF 10, EPO 500, TPA 12.5, TPA + GCSF 12.5 + 10, TPA + EPO 12.5 + 500 (μg·kg^1)

Question: With “EPO: erythropoietin, a glycoprotein hormone that controls erythropoiesis, or red blood cell production” as the molecule, how does the PLT [1, 7] read?
Answer: Its PLT is 385 ± 19.28^(1)(1)(2)(2) ×10^9/L.

Question: And the RBC [1, 7]?
Answer: Its RBC is 7.32 ± 0.10^(1)(1)(2)(2) ×10^12/L.

Question: What about the WBC [1, 7] of the same molecule?
Answer: The WBC was 3.7 ± 0.69^(1)(1) ×10^9/L.

Question: And the PLT [1, 8]?
Answer: The PLT was 935 ± 43.57^(1)(1)(2)(2) ×10^9/L.

Question: What about the RBC [1, 8] of the same molecule?
Answer: The RBC was 6.75 ± 0.69^(1)(1)(2) ×10^12/L.

Question: What about the WBC [1, 8] of the same molecule?
Answer: Its WBC is 5.52 ± 0.34^(1)(1) ×10^9/L.

Question: What about the PLT [1, 9] of the same molecule?
Answer: The PLT was 1469 ± 75.67^(2)(2) ×10^9/L.

Question: What about the RBC [1, 9] of the same molecule?
Answer: The RBC was 8.51 ± 0.86^(1)(1)(2)(2)(3)(3) ×10^12/L.

Question: And the WBC [1, 9]?
Answer: The WBC was 6.45 ± 0.41^(3)(3) ×10^9/L.

B1: G-CSF: granulocyte-colony stimulating factor, a glycoprotein that stimulates the bone marrow to produce granulocytes and stem cells (protein, UniProt P09919 31-207, looked up)
Granulocyte …: TPLGPASSLPQSFLLKCLEQVRKIQGDGAALQEKLVSECATYKLCHPEELVLLGHSLGIPWAPLSSCPSQALQLAGCLSQLHSGLFLYQGLLQALEGISPELGPTLDTLQLDVADFATTIWQQMEELGMAPALQPTQGAMPAFASAFQRRAGGVLVASHLQSFLEVSYRVLRHLAQP
Question: Which results are given for B1?
Answer: effect on the growth of BMSCs [2]: had no effect; colony types whose formation is promoted (CFU-GM, CFU-GEMM, BFU-E) ([3]; bone marrow of AML patients in the period of bone marrow suppression, in vitro): promoted the formation of CFU-GM, but had no effect on CFU-GEMM and BFU-E; total number of clones ([3]; incomplete medium, cultivated 14 days, TPA 10 ng/ml, G-CSF 50 ng/ml): higher than control group; effect on the growth of BMSCs [4]: had no effect; duration of neutropenia [5]: about 24±3 days; bone marrow myeloblast plus promyelocyte count ([6]; after first DA course and 150 μg G-CSF each day): about 40%; duration of neutropenia and thrombocytopenia ([6]; after first DA course, 150 μg G-CSF each day): 12 days; PLT [1, 7]: 373 ± 76.27^(1)(1)(2)(2) ×10^9/L; RBC [1, 7]: 4.94 ± 0.42^(1)(1) ×10^12/L; WBC [1, 7]: 5.3 ± 0.62^(1)(2)(2) ×10^9/L; PLT [1, 8]: 949 ± 65.88^(1)(1)(2)(2) ×10^9/L; RBC [1, 8]: 5.40 ± 0.46^(1)(1) ×10^12/L; WBC [1, 8]: 6.95 ± 0.44^(2) ×10^9/L; PLT [1, 9]: 1456 ± 91.76^(2)(2) ×10^9/L; RBC [1, 9]: 5.30 ± 0.34^(1)(1) ×10^12/L; WBC [1, 9]: 9.14 ± 0.67^(1)(1)(2)(2) ×10^9/L
